Data taken from patent US20220033501A1 (SHANGHAI PHARMAEXPLORER, published 2022).
Numbering of substitutions follows the chain as printed.

T1: TIM-3 protein on human peripheral blood mononuclear lymphocytes (PBMC) (human, UniProt Q8TDQ0 22-301)
T1 sequence: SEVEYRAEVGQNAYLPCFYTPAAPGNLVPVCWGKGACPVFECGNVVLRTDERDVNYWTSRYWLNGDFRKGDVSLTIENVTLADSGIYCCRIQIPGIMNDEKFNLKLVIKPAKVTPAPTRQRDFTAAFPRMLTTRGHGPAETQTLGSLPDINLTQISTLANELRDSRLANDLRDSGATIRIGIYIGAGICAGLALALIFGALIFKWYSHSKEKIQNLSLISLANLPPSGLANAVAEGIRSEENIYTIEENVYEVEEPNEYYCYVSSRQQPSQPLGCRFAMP

T2: monkey TIM-3 on CHOK1 stable cell line (CHOK1-cTIM-3) (monkey)
T2 chain: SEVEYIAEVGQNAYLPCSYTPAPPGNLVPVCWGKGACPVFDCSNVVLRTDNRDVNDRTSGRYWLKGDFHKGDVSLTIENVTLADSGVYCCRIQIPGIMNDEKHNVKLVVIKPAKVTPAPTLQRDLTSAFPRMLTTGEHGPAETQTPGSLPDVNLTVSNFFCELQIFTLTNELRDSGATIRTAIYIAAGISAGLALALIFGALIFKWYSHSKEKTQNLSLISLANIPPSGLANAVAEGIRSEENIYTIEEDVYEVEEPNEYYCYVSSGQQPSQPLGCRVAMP

T3: human TIM-3 on CHOK1 stable cell line (CHOK1-hTIM-3) (human, UniProt Q8TDQ0 22-301)
T3 sequence: T1 sequence

T4: human TIM-3 protein with hFc tag (hTIM-3-hFc protein) (human, UniProt Q8TDQ0 22-200)
T4 construct: also called immunogen 1; human TIM-3 extracellular domain protein; not shown: human IgG Fc fragment (hFc) of the pCpC vector
T4 sequence: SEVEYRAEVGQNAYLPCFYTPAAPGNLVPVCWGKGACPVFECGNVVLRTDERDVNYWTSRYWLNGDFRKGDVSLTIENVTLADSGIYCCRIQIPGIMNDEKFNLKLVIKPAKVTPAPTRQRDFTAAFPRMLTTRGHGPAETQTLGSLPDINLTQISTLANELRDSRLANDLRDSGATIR

T5: murine TIM-3 extracellular domain protein with hFc tag (mTIM-3-hFc) (mouse, UniProt Q8VIM0 29-191)
T5 construct: also called mouse TIM-3 extracellular domain protein; not shown: human IgG Fc fragment (hFc) of the pCpC vector
T5 chain: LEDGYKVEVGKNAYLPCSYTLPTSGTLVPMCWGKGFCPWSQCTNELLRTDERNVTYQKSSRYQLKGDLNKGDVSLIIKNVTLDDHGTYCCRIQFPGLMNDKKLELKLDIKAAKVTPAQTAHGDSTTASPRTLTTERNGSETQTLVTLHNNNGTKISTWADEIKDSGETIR

T6: monkey TIM-3 extracellular domain protein with hFc tag (cTIM-3-hFc) (monkey)
T6 construct: not shown: human IgG Fc fragment (hFc) of the pCpC vector
T6 chain: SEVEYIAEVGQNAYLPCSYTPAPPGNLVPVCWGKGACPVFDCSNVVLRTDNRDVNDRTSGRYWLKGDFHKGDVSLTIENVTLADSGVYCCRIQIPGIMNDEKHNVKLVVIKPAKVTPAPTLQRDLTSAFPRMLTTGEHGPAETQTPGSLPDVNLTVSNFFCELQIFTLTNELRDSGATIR

B1: 57F4E5 fully human TIM-3 antibody (human IgG4, kappa) (antibody, V domains shown)
VH: EVQLVESGGGLVQPGGSLRLSCAASGFTFSSYWMSWVRQAPGKGLEWVANIKQDGSEKYYVDSVKGRFTISRDSAKNSLYLQMNSLRAEDTAMYFCARDSNFFDYWGQGTLVTVSS
VL: ETVMTQSPATLSVSPGERATLSCRASQSVSSNLAWYQRKPGQAPRLLIYFSSTRATGIPARFSGSGSGTEFTLTISSLQSEDFAVYYCQQYNNWPLTFGGGTKVEIK
B2: 134H3G6 fully human TIM-3 antibody (human IgG4, kappa) (antibody, V domains shown)
VH: EVQLVESGGGLVQPGGSLRLSCAASGFTFSNSWMTWVRQAPGKGLEWVANIKQAGTEKYYVDSVKGRFTISRDNAKNSLYLQMNSLRAEDTAVYYCNSGSNYFDYWGQGTLVTVSS
VL: B1 VL with T2I, S26R, S28N, V29F, S30Y, R38Q, F50G, S51A
B3: 215A8F2 fully human TIM-3 antibody (human IgG4, kappa) (antibody, V domains shown)
VH: QVQLQQWGAGLLKPSETLSLTCTVYGGSFSGYYWNWIRQPPGKGLEWLGEINHSGSTNYNPSLKRRVTISVDTSKNQFSLKLSSVTAADTAVYYCARVYYYGPFDFWGQGTLVTVSS
VL: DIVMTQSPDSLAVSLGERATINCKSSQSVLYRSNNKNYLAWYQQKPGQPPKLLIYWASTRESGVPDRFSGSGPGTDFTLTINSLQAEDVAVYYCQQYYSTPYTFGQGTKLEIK
B4: 34B6D8 (TIM-3 antibody purified from hybridoma, chimeric antibody of Example 2) (antibody, V domains shown)
VH: EVQLVESGGGLVQPGGSLRLSCAASGFTFSTYWMTWVRQAPGKRLEWVANIKQGGGDKYYVDSVKGRFTISTDNAKNSLYLQMNSLRAEDTAVYYCARGSNWFDPWGQGTLVTVSS
VL: EIVMTQSPATLSMSPGERATLSCRASQSVYDNLAWYQQKPGQAPRLLIYGASTRATGIPARFSGSGSGTEFTLTISSLQSEDFALYYCQQYTHWPITFGQGTRLEIK
notes: From hybridoma of Harbour H2L2 transgenic mice: human variable regions, rat constant regions
B5: 134H3G6 (TIM-3 antibody purified from hybridoma, chimeric antibody of Example 2) (antibody, V domains shown)
VH: B2 VH
VL: B1 VL with T2I, S26R, S28N, V29F, S30Y, R38Q, F50G, S51A
notes: as for B4
B6: 18D2H2 (TIM-3 antibody purified from hybridoma, chimeric antibody of Example 2) (antibody, V domains shown)
VH: B4 VH with G10D, K43R, R44G, G54D, G56S, D57A, I70L, T72R, N74D, P105Y
VL: B1 VL with S26N, S28N, S30Y, R38Q, F50D, S51A, I58F
notes: as for B4
B7: 57F4E5 (TIM-3 antibody purified from hybridoma, chimeric antibody of Example 2) (antibody, V domains shown)
VH: B1 VH
VL: B1 VL
notes: as for B4
B8: 39E5H1 (TIM-3 antibody purified from hybridoma, chimeric antibody of Example 2) (antibody, V domains shown)
VH: B4 VH with T31S, T35S, R44G, Q53R, G56S, D57E, K58R, T72G, L79V
VL: B4 VL with I2T, T10I, M13V, D31S, P40L, G50D, L85V, T92N, H93N
notes: as for B4
B9: 215A8F2 (TIM-3 antibody purified from hybridoma, chimeric antibody of Example 2) (antibody, V domains shown)
VH: B3 VH
VL: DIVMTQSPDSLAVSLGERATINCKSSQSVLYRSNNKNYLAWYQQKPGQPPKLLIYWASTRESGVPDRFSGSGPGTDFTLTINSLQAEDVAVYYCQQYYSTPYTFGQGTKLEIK
notes: as for B4
B10: 7A4F10 (TIM-3 antibody purified from hybridoma, chimeric antibody of Example 2) (antibody, V domains shown)
VH: EVQLLESGGGLVQPGGSLRLSCAASGFTFRTHLISWVRQAPGKGLEWVAAITGSGGSTYYADSVKGRFIISRDNSKNTLFLQMNSLRAEDTAVYYCAKDGGSGSYDDFWGQGTLVTVSS
VL: ETVLTQSPVTLSLSPGERATLSCRASQSVGSYLAWYQQKPGQAPRLLIYDASNRATGIPARFSGSGSGTDFTLTISSLEPEDFAVYYCQQRSNWPPTFGQGTKVEIK
notes: as for B4

The binders below were run against T1, TIM-3 protein on human peripheral blood … (assay: cell-based or functional assay).

Binder | IFN-γ production (donor X); antibody 0.1 µg/ml, N = 1 | IFN-γ production (donor X); antibody 0.1 µg/ml, N = 2 | IFN-γ production (donor X); antibody 1 µg/ml, N = 1 | IFN-γ production (donor X); antibody 1 µg/ml, N = 2 | IFN-γ production (donor X); antibody 10 µg/ml, N = 1 | IFN-γ production (donor X); antibody 10 µg/ml, N = 2 | IFN-γ production (donor X); antibody '0' (4th head as printed), N = 1 | IFN-γ production (donor X); antibody '0' (4th head as printed), N = 2 | IFN-γ production (donor X); antibody '0' (5th head as printed), N = 1 | IFN-γ production (donor X); antibody '0' (5th head as printed), N = 2
B1 | 2800 pg/mL | 2980 pg/mL | 3550 pg/mL | 3150 pg/mL | 3080 pg/mL | 3340 pg/mL | 2870 pg/mL | 2740 pg/mL | 2160 pg/mL | 2400 pg/mL
B2 | 2610 pg/mL | 2720 pg/mL | 3250 pg/mL | 2890 pg/mL | 3460 pg/mL | 3480 pg/mL | 2390 pg/mL | 2430 pg/mL | 2510 pg/mL | 2370 pg/mL
B3 | 2410 pg/mL | 3170 pg/mL | 2780 pg/mL | 2030 pg/mL | 3000 pg/mL | 2470 pg/mL | 2100 pg/mL | 2300 pg/mL | 1970 pg/mL | 2400 pg/mL

Biological target: T2, monkey TIM-3 on CHOK1 stable cell line …
Assay: FACS, CHOK1-cTIM-3 cells, 0.013 nM antibody

Binder | Mean fluorescence intensity
B1 | 11.4
B2 | 16.8
B3 | 11.5

The binders below were run against T3, human TIM-3 on CHOK1 stable cell line … (assay: FACS, CHOK1-hTIM-3 cells, 0.013 nM antibody).

Binder | Mean fluorescence intensity
B1 | 9.6
B2 | 13.5
B3 | 8.2

The binders below were run against T4, human TIM-3 protein with hFc tag … (assay: ELISA, coated hTIM-3-hFc; antibody 6.6667 nM).
Source text: The amino acid sequence 22-200 of the extracellular domain of the human TIM-3 protein described in the step of Example 1 (as shown in SEQ ID NO. 71 in the sequence listing) was cloned into a pCpC vector having a human IgG Fc fragment (hFc), and transfected into HEK293 cells. The cell culture medium was collected, and purified to obtain the human TIM-3 protein with hFc tag (herein referred to as hTIM-3-hFc protein). The amino acid sequence 22-201 of the extracellular domain of the monkey TIM-3 protein (as shown in SEQ ID NO. 72 in the sequence listing) was cloned into a pCpC vector having a human IgG Fc fragment (hFc), and transfected into HEK293 cells. The cell culture medium was collected, and purified to obtain the monkey TIM-3 protein with hFc tag (herein referred to as cTIM-3-hFc protein). […] The cell culture medium was collected, and purified to obtain the murine TIM-3 protein with hFc tag (herein referred to as mTIM-3-hFc protein). Purified human, monkey, and mouse TIM-3 extracellular domain proteins (hTIM-3-hFc, cTIM-3-hFc, and mTIM-3-hFc) were diluted with PBS to a final concentration of 1.0 μg/ml and then added to a 96-well ELISA plate with 100 μl per well. The plate was sealed with plastic film and incubated overnight at 4° C. The plate was washed 4 times with the plate washing solution (PBS+0.01% Tween20) on the next day, and added with the blocking solution (PBS+0.01% Tween20+1% BSA) and sealed at room temperature for 1-2 hours. The blocking solution was poured out. 50-100 μl of the antibody sample to be tested was added to each well. The plate was incubated at 37° C. for 1-2 hours, and washed 2-3 times with plate washing solution (PBS+0. 01% Tween20). HRP (horseradish peroxidase) labeled secondary antibody was added. The plate was incubated at 37° C. for 1-2 hours, and washed 2-3 times with plate washing solution (PBS+0. 01% Tween20). […] of TMB substrate was added to each well. After incubated at room temperature for 15-30 minutes, the plate was added with […] stop solution (1.0N HCl) to each well. An ELISA plate reader (TiterMax 384plus, Molecular Device) was used to read the A450 nm value.

Binder | OD450
B4 | 3.4
B5 | 2.57
B6 | 2.86
B7 | 3.29
B8 | 3.34
B9 | 3.15
B10 | 2.92

These binders were tested against T3, human TIM-3 on CHOK1 stable cell line … (assay: FACS, CHOK1-hTIM-3 cells, 0 nM antibody).

Binder | Mean fluorescence intensity
B1 | 2.9
B2 | 2.8
B3 | 2.9

Biological target: T5, murine TIM-3 extracellular domain …
Assay: ELISA, coated mouse TIM-3 ECD protein, 0 nM antibody

Binder | OD450
B1 | 0.24
B2 | 0.22
B3 | 0.21

Biological target: T6, monkey TIM-3 extracellular domain …
Assay: ELISA, coated monkey TIM-3 ECD protein, 0.0667 nM antibody

Binder | OD450
B1 | 1.34
B2 | 1.3
B3 | 1.37
